Sequences and labels used below:
T1: RNA polymerase III subunit C160 (S. cerevisiae, UniProt P04051 1-1460)
T1 sequence: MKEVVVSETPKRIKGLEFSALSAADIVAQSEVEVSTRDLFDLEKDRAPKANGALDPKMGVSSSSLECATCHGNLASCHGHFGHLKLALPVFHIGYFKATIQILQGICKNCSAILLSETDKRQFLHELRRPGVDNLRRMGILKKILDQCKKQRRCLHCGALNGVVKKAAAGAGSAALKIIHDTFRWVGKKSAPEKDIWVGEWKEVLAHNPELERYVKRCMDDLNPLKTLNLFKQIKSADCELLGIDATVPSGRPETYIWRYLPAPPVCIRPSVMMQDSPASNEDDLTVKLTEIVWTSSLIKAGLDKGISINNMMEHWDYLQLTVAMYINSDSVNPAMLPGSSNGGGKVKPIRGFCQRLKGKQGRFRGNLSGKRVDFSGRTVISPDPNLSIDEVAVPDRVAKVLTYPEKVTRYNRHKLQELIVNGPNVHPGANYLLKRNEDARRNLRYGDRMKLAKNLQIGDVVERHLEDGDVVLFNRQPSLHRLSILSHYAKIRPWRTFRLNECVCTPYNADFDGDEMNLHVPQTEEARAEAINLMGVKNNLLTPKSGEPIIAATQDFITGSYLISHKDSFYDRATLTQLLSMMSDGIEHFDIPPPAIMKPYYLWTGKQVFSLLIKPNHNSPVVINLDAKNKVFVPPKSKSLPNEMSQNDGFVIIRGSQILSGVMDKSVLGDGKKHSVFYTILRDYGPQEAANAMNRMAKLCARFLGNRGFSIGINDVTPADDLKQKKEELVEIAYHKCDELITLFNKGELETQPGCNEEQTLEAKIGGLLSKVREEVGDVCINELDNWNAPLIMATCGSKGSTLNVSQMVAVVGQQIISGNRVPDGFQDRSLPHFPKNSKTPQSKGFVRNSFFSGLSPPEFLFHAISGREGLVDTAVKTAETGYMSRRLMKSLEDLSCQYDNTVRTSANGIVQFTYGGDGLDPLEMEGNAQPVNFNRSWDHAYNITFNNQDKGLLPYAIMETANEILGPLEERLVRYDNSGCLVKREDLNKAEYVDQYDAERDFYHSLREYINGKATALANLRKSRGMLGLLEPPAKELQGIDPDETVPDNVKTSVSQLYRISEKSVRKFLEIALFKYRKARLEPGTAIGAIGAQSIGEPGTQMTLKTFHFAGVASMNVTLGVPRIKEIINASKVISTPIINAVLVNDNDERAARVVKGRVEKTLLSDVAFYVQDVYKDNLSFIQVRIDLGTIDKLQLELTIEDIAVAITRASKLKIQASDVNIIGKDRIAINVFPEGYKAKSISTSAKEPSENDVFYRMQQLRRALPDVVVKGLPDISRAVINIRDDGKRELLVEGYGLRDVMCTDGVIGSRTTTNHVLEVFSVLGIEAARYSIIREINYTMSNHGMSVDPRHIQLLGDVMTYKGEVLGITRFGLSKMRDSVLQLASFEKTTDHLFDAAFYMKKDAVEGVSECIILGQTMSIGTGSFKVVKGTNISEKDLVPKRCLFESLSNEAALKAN

B1: RNA polymerase III subunit C31 (natural protein, S. cerevisiae, UniProt P17890 1-251, looked up)
chain: MSSYRGGSRGGGSNYMSNLPFGLGYGDVGKNHITEFPSIPLPINGPITNKERSLAVKYINFGKTVKDGPFYTGSMSLIIDQQENSKSGKRKPNIILDEDDTNDGIERYSDKYLKKRKIGISIDDHPYNLNLFPNELYNVMGINKKKLLAISKFNNADDVFTGTGLQDENIGLSMLAKLKELAEDVDDASTGDGAAKGSKTGEGEDDDLADDDFEEDEDEEDDDDYNAEKYFNNGDDDDYGDEEDPNEEAAF
B2: RNA polymerase III subunit C34 (natural protein, S. cerevisiae)
chain: MSGMIENGLQLSDNAKTLHSQMMSKGIGALFTQQELQKQMGIGSLTDLMSIVQELLDKNLIKLVKQNDELKFQGVLESEAQKKATMSAEEALVYSYIEASGREGIWSKTIKARTNLHQHVVLKCLKSLESQRYVKSVKSVKFPTRKIYMLYSLQPSVDITGGPWFTDGELDIEFINSLLTIVWRFISENTFPNGFKNFENGPKKNVFYAPNVKNYSTTQEILEFITAAQVANVELTPSNIRSLCEVLVYDDKLEKVTHDCYRVTLESILQMNQGEGEPEAGNKALEDEEEFSIFNYFKMFPASKHDKEVVYFDEWTI
B3: RNA polymerase III subunit C82 (natural protein, S. cerevisiae)
chain: MDELLGEALSAENQTGESTVESEKLVTPEDVMTISSLEQRTLNPDLFLYKELVKAHLGERAASVIGMLVALGRLSVRELVEKIDGMDVDSVKTTLVSLTQLRCVKYLQETAISGKKTTYYYYNEEGIHILLYSGLIIDEIITQMRVNDEEEHKQLVAEIVQNVISLGSLTVEDYLSSVTSDSMKYTISSLFVQLCEMGYLIQISKLHYTPIEDLWQFLYEKHYKNIPRNSPLSDLKKRSQAKMNAKTDFAKIINKPNELSQILTVDPKTSLRIVKPTVSLTINLDRFMKGRRSKQLINLAKTRVGSVTAQVYKIALRLTEQKSPKIRDPLTQTGLLQDLEEAKSFQDEAELVEEKTPGLTFNAIDLARHLPAELDLRGSLLSRKPSDNKKRSGSNAAASLPSKKLKTEDGFVIPALPAAVSKSLQESGDTQEEDEEEEDLDADTEDPHSASLINSHLKILASSNFPFLNETKPGVYYVPYSKLMPVLKSSVYEYVIASTLGPSAMRLSRCIRDNKLVSEKIINSTALMKEKDIRSTLASLIRYNSVEIQEVPRTADRSASRAVFLFRCKETHSYNFMRQNLEWNMANLLFKKEKLKQENSTLLKKANRDDVKGRENELLLPSELNQLKMVNERELNVFARLSRLLSLWEVFQMA
B4: Pol III stalk (subunits C17 and C25) (complex, S. cerevisiae)
chain 1: MKVLEERNAFLSDYEVLKFLTDLEKKHLWDQKSLAALKKSRSKGKQNRPYNHPELQGITRNVVNYLSINKNFINQEDEGEERESSGAKDAEKSGISKMSDESFAELMTKLNSFKLFKAEKLQIVNQLPANMVHLYSIVEECDARFDEKTIEEMLEIISGYA
chain 2: MFILSKIADLVRIPPDQFHRDTISAITHQLNNKFANKIIPNVGLCITIYDLLTVEEGQLKPGDGSSYINVTFRAVVFKPFLGEIVTGWISKCTAEGIKVSLLGIFDDIFIPQNMLFEGCYYTPEESAWIWPMDEETKLYFDVNEKIRFRIEREVFVDVKPKSPKERELEERAQLENEIEGKNEETPQNEKPPAYALLGSCQTDGMGLVSWWE
B5: RNA polymerase III stalk subunit C25 (natural protein, S. cerevisiae)
chain: B4 chain 2

Holding throughout (test): cryo-EM structure
Assay [1] addresses B4.
The target of assay [2] is B3.
For assay [3], the target named is T1, RNA polymerase III subunit C160.

The results in this text go back to paper PMC4681132 (Nature, 2015).

Take B1: the binding result in assay [1] and in assay [2] was “binds” throughout.

Regarding B2, the binding result in assay [3] and in assay [2] was “binds” in each case.

Turning to B3, the binding result in assay [3] was “binds”.

As to B4, in assay [3], the binding result is “binds”.

In the case of B5, in assay [3], the binding result was “binds”.
